# Results taken from patent publication US20030134779A1, “Method and composition for treatment and/or prevention of antibiotic-resistant microorganism infections” (priority 2002, published 2003).
# B1: LF: bovine lactoferrin, 80-kDa iron-binding glycoprotein found in milk (protein, UniProt P24627 20-708, looked up)
# Lactotransferrin: APRKNVRWCTISQPEWFKCRRWQWRMKKLGAPSITCVRRAFALECIRAIAEKKADAVTLDGGMVFEAGRDPYKLRPVAAEIYGTKESPQTHYYAVAVVKKGSNFQLDQLQGRKSCHTGLGRSAGWIIPMGILRPYLSWTESLEPLQGAVAKFFSASCVPCIDRQAYPNLCQLCKGEGENQCACSSREPYFGYSGAFKCLQDGAGDVAFVKETTVFENLPEKADRDQYELLCLNNSRAPVDAFKECHLAQVPSHAVVARSVDGKEDLIWKLLSKAQEKFGKNKSRSFQLFGSPPGQRDLLFKDSALGFLRIPSKVDSALYLGSRYLTTLKNLRETAEEVKARYTRVVWCAVGPEEQKKCQQWSQQSGQNVTCATASTTDDCIVLVLKGEADALNLDGGYIYTAGKCGLVPVLAENRKSSKHSSLDCVLRPTEGYLAVAVVKKANEGLTWNSLKDKKSCHTAVDRTAGWNIPMGLIVNQTGSCAFDEFFSQSCAPGADPKSRLCALCAGDDQGLDKCVPNSKEKYYGYTGAFRCLAEDVGDVAFVKNDTVWENTNGESTADWAKNLNREDFRLLCLDGTRKPVTEAQSCHLAVAPNHAVVSRSDRAAHVKQVLLHQQALFGKNGKNCPDKFCLFKSETKNLLFNDNTECLAKLGGRPTYEEYLGTEYVTAIANLKKCSTSPLLEACAFLTR
# Tests used:
# [1] = test system: β-lactamase induction in S. aureus SHY97-4320; assay: Induction of β-lactamase after LF pre-incubation (signal transduction); type: cell-based, Staphylococcus aureus; conditions: LF 1 mg/ml added 30 or 60 min before 8 μg/ml penicillin G, 4 h
# Protocol: As the β-lactamase system is the best-known signal transduction system in S. aureus. We tested the ability of LF to inhibit signal transduction in S. aureus SHY97-4320 which is an inducible beta-lactamase producing strain. Bacterial cells were first exposed during 30 or 60 min to LF in broth and were further treated with 8 μg/ml of penicillin G for an additional 4 h. The cfu/ml were determined, cells aliquots were centrifuged and pellets were suspended in 10 mM HEPES buffer (pH 7.4) as mentioned above. Nitrocefin (100 μM) was added to 20 μl of cells in a final volume of 200 μl. Hydrolysis was measured at 486 nm on a Spectra Max 250 Microplate Spectrophotometer System of Molecular Device (Fisher Scientific, Ottawa, Canada). β-Lactamase activity was expressed as ΔO.D.486 nm/min and corrected for bacterial OD.
# S. aureus = assay: Growth inhibition and influence of iron; type: cell-based, Staphylococcus aureus
# Protocol: (§1) The effect of LF or LFC at concentration sub-MICs alone or in combination with sub-MICs of antibiotics on bacterial growth rate of S. aureus, E. coli and K. pneumoniae was determined by monitoring bacterial cultures in MHB with the O.D.600 nm or by the count of colony forming unit per ml (cfu/ml). A volume of 2.5 ml of overnight cultures in MHB adjusted to 0.5-1 McFarland standard in saline were used to inoculate a final volume of 25 ml of fresh MHB containing the desired concentration of tested compounds. All flasks were then incubated at 37° C. with agitation (200 rpm) for 9 h. Aliquots were removed every hour to determine the culture turbidity using the spectrophotometer Philips PU 8800 (Pye Unican Ltd, Cambridge, UK). The combined antibiotic effect on bacterial growth was also determined using concentrations of LF in the presence of different concentrations of antibiotics. Briefly, a volume of 3 ml of fresh MHB containing desired concentration of drugs was adjusted to an optical density of 0.4 at 540 nm after an overnight culture. The culture was then incubated at 37° C with agitation (200 rpm). After incubation, aliquots were removed to determine the culture turbidity (OD540nm) or cfu/ml. To determine the influence of the level of iron on of the growth inhibition by the test compound, 5 μM of FeCl3 were added to the media.
# S. aureus ATCC 25923 = assay: Bacterial growth in MHB; type: cell-based, Staphylococcus aureus; conditions: LF alone, sub-MIC
# Protocol: as §1
# [2] = test system: S. aureus strains ATCC 25923, SHY97-3906, −4242 and RFT-5; assay: Bacterial growth in MHB; type: cell-based, Staphylococcus aureus; conditions: LF alone, sub-MIC (9.1, 36.6, 250 or 500 μg/ml); 4, 8 and 18-h; except for strain SHY97-3906
# Protocol: as §1
# S. aureus PC-1 [3] = assay: Bacterial growth in MHB; type: cell-based, Staphylococcus aureus; conditions: LF or LFC alone, sub-MIC
# Protocol: as §1
# [4] = test system: β-lactamase activity of S. aureus PC-1; assay: β-lactamase activity, nitrocefin assay, bovine LF/LFC; type: cell-based; conditions: LF 1 mg/ml (P<0.05); LFC 32 or 64 μg/ml (P<0.001)
# Protocol: (§2) The effects of sub-MICs of LF (1 mg/ml), LFC (32 and 64 μg/ml) alone or in combination with ampicillin (4μg/ml) or penicillin G (8 μg/ml) were evaluated on the β-lactamase activity of S. aureus strains SHY97-4320 and PC-1. The chromogenic cephalosporin nitrocefin (Becton Dickinson, Microbiology, Cockeysville, Md.) was used in a quantitative spectrophotometric assay. Bacterial cells were first exposed during 4 and 22-h to drugs in broth. The number of bacteria (cfu/ml) were determined and cells aliquots were centrifuged at each point in time. The pellets were suspended in 10 mM HEPES buffer (pH 7.4) to an OD415 nm of 1 for PC-1 and 2 for SHY97-4320. Nitrocefin (100 μM) was added to 100 μl of cells in a final volume of 1 ml. Hydrolysis was measured at 486 nm on spectrophotometer. β-lactamase activity was expressed as ΔO.D.486 nm/min and corrected for bacterial OD.
# [5] = test system: β-lactamase activity of S. aureus SHY97-4320; assay: as above; type: cell-based
# Protocol: as §2
# S. aureus PC-1 [6] = assay: Cell morphology by transmission electron microscopy; type: cell-based, Staphylococcus aureus; conditions: exposure to LF or LFC
# Protocol: Bacterial cells were grown overnight on MHA or MHB containing sub-MICs of penicillin G with or without LF or LFC. Microorganisms were prepared for transmission electron microscopy by fixation with glutaraldehyde followed by ferritin labelling. This method allows good- preservation of capsular material. Briefly, bacterial cells grown in the presence or absence of antibiotics were fixed in cacodylate buffer (0.1 M, pH 7.0) containing 5% (v/v) glutaraldehyde, for 2 h at 20° C. Fixed microorganims were suspended in cacodylate buffer and allowed to react with the polycationic ferritin (Sigma Chemicals, St-Louis, Mo.; final concentration 1.0 mg/ml) for 30 min at 20° C. The reaction was slowed down by 10-fold dilution with buffer, and the microorganisms were centrifuged and washed three times in cacodylate buffer. Bacterial cells were then immobilized in 4% (w/v) agar, washed 5 times in cacodylate buffer and post-fixed with 2% (w/v) osmium tetroxide for 2 h. […]
# Bacterial cells of PC-1 (a constitutively high producing β-lactamase strain) were grown overnight in MHB containing 8 μg/ml of penicillin G, 16 μg/ml of LFC alone or in combination for 4-h at 37° C. with agitation at 150 rpm. Bacteria cell morphology was evaluated by transmission electron microscopy after fixation and ferritin labelling method as previously described.
# β-lactamase activity of S. aureus SHY97-4320, sequence (P00807 25-281): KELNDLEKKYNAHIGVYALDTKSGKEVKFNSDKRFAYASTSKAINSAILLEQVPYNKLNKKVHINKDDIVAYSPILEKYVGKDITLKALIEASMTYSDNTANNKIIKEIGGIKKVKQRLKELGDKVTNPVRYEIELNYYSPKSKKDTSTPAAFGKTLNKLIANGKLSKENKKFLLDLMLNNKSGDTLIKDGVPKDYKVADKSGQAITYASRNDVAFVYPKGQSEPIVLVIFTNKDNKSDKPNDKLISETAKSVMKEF
# β-lactamase activity of S. aureus PC-1, sequence (P00807 25-281): as above
molecule,measurement,setting,value
B1,induction of β-lactamase by penicillin G,[1],completely block induction of β-lactamase
same,effect of addition of 5 μM of FeCl3 on LF growth inhibitory activity,S. aureus,did not affect
same,growth inhibitory activity,S. aureus; bovine LF saturated to 16.2% of iron,demonstrated a growth inhibitory activity
same,growth,S. aureus ATCC 25923,delayed growth
same,growth,[2],did not affect the growth
same,growth,S. aureus PC-1 [3],delayed growth
same,β-lactamase activity,[4],moderately reduces β-lactamase activity
same,β-lactamase activity,[5]; LF 1 mg/ml alone,no β-lactamase activity
same,β-lactamase activity,"[5]; LF 1 mg/ml in combination with 8 μg/ml penicillin G, P<0.001",a significant reduction of β-lactamase activity
same,shape and size of cells,S. aureus PC-1 [6],affected the shape and the size
